Assay results reported in paper PMC12051786, “Photoisomerization of Azobenzene‐Extended Charybdotoxin for the Optical Control of Kv1.2 Potassium Channel Activity” (Angewandte Chemie (International Ed. in English), 2025).

What was measured:
[1] = target: mouse Kv1.2 channel (mouse) (UniProt P63141)
[2] = target: mouse Kv1.2 channel (mouse) (UniProt P63141); remark: listed apart in the source
[3] = Photo-isomerization kinetics (trans/cis) followed by absorbance under illumination; assay type: physicochemical; conditions: 9.5 mW cm−2, 100% DMSO
Description: Next, we evaluated for all monomers and dimers the trans‐cis isomerization reactions under various wavelengths of illumination. Illuminating the ChTx‐Ah^14‐Az1 monomer at λ = 365 nm at 9.5 mW cm^−2, to favor the cis configuration, yielded a significant time‐dependent change in the absorbance properties of the peptide, characterized by a decrease of the absorbance band maximum centered at 340 nm (Figure 4a).

[4] = Thermal stability of the cis isomer in the dark; conditions: Figure S3

mouse Kv1.2 channel (mouse), sequence (P63141 whole entry): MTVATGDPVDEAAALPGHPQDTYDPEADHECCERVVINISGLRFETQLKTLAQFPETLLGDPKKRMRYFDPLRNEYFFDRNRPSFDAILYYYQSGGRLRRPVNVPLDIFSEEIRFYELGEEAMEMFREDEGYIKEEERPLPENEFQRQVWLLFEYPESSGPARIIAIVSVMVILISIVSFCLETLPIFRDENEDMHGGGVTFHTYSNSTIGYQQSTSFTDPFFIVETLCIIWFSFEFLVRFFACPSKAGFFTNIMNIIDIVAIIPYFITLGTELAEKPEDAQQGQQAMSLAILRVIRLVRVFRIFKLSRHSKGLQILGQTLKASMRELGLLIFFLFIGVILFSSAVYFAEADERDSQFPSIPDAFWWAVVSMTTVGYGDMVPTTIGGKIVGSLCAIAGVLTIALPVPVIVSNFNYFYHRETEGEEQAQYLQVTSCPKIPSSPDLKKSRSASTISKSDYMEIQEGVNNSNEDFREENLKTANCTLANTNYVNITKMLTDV
charybdotoxin, sequence (P13487 23-59): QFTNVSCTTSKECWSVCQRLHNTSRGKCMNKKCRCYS
ChTx‐Ah^9, sequence (P13487 whole entry, looked up): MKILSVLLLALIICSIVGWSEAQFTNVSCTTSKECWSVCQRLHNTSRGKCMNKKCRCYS
ChTx‐Ah^12, sequence (P13487 whole entry, looked up): as above

Compound	IC50 of inhibition of K+ current, L929 cells stably overexpressing mouse Kv1.2, automated patch-clamp [1] [nM]	percent block of Kv1.2 current at 10 nM peptide, patch-clamp [2] [%]	other results
ChTx‐Ah^9 (from UniProt P13487 23-59) (peptide)	6.3	–	–
ChTx‐Ah^14 (from UniProt P13487 23-59) (peptide)	9.8	52	–
C#CCNC(=O)c1ccc(/N=N/c2ccc(C(=O)NCC#C)cc2)cc1 [Az1, (E)‐4,4′‐(diazene‐1,2‐diyl)bis(N‐(prop‐2‐yn‐1‐yl)benzamide)]	–	–	Time at which formation of the cis isomer saturates ([3]; irradiation at 340 nm): 300 s; Time for recovery of trans-enriched compound on reverse-switching ([3]; irradiation at 435 nm): ≈ 60 s; Thermal stability of the cis isomer [4]: remarkably stable
ChTx‐Ah^12 (from UniProt P13487 23-59) (peptide)	1.2	–	–
ChTx‐Ah^19 (from UniProt P13487 23-59) (peptide)	11.5	–	–
charybdotoxin (from UniProt P13487 23-59) (peptide)	5	62.2	–
